Reference: paper PMC8209680 (Cell reports, 2021)

Biological target: Mtb ClpB M-domain motif 2 protein (residues 467–518) (Mycobacterium tuberculosis, UniProt P9WPD1 467-518)
Test: ITC

Chain of Mtb ClpB M-domain motif 2 protein (residues 467–518) (P9WPD1 467-518): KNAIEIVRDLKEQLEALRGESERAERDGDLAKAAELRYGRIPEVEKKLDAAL

B1: Mtb DnaK NBD (residues 1–359) (domain or fragment)
chain: MARAVGIDLGTTNSVVSVLEGGDPVVVANSEGSRTTPSIVAFARNGEVLVGQPAKNQAVTNVDRTVRSVKRHMGSDWSIEIDGKKYTAPEISARILMKLKRDAEAYLGEDITDAVITTPAYFNDAQRQATKDAGQIAGLNVLRIVNEPTAAALAYGLDKGEKEQRILVFDLGGGTFDVSLLEIGEGVVEVRATSGDNHLGGDDWDQRVVDWLVDKFKGTSGIDLTKDKMAMQRLREAAEKAKIELSSSQSTSINLPYITVDADKNPLFLDEQLTRAEFQRITQDLLDRTRKPFQSVIADTGISVSEIDHVVLVGGSTRMPAVTDLVKELTGGKEPNKGVNPDEVVAVGAALQAGVLKGE
Q: For B1, which “stoichiometry N” value is on record?
A: Its value is ~1.
